Measurements reported in US20040171105A1 (published 2004).

B1: Smac (purified recombinant) (other, UniProt Q9NR28 56-239, looked up)
chain: AVPIAQKSEPHSLSSEALMRRAVSLVTDSTSTFLSQTTYALIEAITEYTKAVYTLTSLYRQYTSLLGKMNSEEEDEVWQVIIGARAEMTSKHQEYLKLETTWMTAVGLSEMAAEAAYQTGADQASITARNHIQLVKLQVEEVHQLSRKAETKLAEAQIEELRQKTQEEGEERAESEQEAYLRED
notes: The construct is not described; also called Smac/DIABLO
B2: OmiΔ8 (Omi without the AVPS tetrapeptide, C-terminal hexa-His tagged) (enzyme)
chain: PPPASPRSQYNFIADVVEKTAPAVVYIEILDRHPFLGREVPISNGSGFVVAADGLIVTNAHVVADRRRVRVRLLSGDTYEAVVTAVDPVADIATLRIQTKEPLPTLPLGRSADVRQGEFVVAMGSPFALQNTITSGIVSSAQRPARDLGLPQTNVEYIQTDAAIDFGNSGGPLVNLDGEVIGVNTMKVTAGISFAIPSDRLREFLHRGEKKNSSSGISGSQRRYIGVMMLTLSPSILAELQLREPSFPDVQHGVLIHKVILGSPAHRAGLRPGDVILAIGEQMVQNAEDVYEAVRTQSQLAVQIRRGRETLTLYVTPEVTEHHHHHH
notes: The name Δ8 may mean that 8 residues were deleted in the tested construct; also called Omi?8; OmiΔAVPS

Experiments:
[1] = target: T1, GST fusion form of full-length human cIAP1 (human, UniProt Q13490 1-618); assay: cell-based or functional assay
[2] = target: T2, Omi WT (wild-type mature Omi/HtrA2, C-terminal hexa-His tagged, recombinant from E. coli) (Homo sapiens (humans), UniProt O43464 134-458); assay: immunoprecipitation assay (data not shown)
T2 construct: Any N-terminal Met from Nde I cloning is not discussed for the bacterial protein; also called wild-type Omi; PRSS25
T2 sequence: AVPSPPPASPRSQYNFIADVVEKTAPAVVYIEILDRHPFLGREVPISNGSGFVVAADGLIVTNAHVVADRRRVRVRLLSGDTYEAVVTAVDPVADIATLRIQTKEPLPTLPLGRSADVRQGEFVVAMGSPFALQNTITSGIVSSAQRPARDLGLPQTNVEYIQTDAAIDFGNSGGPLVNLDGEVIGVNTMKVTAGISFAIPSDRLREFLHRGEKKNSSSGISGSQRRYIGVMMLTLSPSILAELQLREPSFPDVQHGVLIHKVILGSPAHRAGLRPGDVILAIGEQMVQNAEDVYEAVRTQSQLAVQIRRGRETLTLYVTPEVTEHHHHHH

[3] = target: T1, GST fusion form of full-length human …; assay: GST pulldown on Glutathione Sepharose beads, Western blot (anti-GST, anti-Penta-His)
Experimental: To examine whether the differential in catalytic efficiency between Omi WT and OmiΔ8 was due to different binding affinities to IAPs, a GST-based pulldown assay was used to monitor the IAP binding affinities of Omi WT and OmiΔ8. Full-length cIAP1 (50 nM) was incubated with 100 nM of Omi WT and Omi mutants for 20 minutes at 4° C. in 50 μl of PBST. The samples were then incubated with 20 μl of Glutathione Sepharose beads (Amersham Biosciences, Piscataway, N.J.) for 30 minutes at 4° C. The beads were precipitated by centrifugation and washed briefly with 1.4 ml×3 of PBST. The proteins bound to the beads and left in the supernatant were separately mixed with SDS sample loading buffer and resolved by SDS-PAGE, then transferred to a nitrocellulose filter. The upper part of the filter was probed with an antibody against GST and the lower part with an antibody against Penta-His.

T1 sequence (Q13490 whole entry, the tested form may be a part): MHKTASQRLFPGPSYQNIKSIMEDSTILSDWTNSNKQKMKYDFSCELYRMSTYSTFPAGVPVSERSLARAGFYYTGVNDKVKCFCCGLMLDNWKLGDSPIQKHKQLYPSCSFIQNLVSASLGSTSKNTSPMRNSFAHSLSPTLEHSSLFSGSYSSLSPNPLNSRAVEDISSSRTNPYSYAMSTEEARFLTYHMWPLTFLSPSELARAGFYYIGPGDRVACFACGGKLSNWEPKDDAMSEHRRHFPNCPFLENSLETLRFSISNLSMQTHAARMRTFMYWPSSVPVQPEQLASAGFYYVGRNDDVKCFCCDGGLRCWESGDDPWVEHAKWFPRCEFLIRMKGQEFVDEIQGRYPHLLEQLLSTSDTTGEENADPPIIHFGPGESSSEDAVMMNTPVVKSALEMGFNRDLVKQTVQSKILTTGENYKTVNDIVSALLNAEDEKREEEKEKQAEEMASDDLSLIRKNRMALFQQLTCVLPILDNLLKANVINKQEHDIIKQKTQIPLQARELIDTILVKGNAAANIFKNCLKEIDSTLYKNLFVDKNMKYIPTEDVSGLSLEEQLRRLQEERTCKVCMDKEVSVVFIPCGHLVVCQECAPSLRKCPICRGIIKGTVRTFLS

Row | Binder | relief of cIAP1 inhibition of caspase activity in HeLa extracts [1] [nM] | binding result [2] | binding result [3]
1 | B1 | 200 | no binding | 
2 | B2 |  |  | no binding (tested: 100 nM Omi mutant with 50 nM cIAP1)
